Test results: patent US20050009743A1

What was measured:
[1] = molecular target: (CA-CTD)2, two copies of the HIV-1 CA C-terminal dimerization domain in tandem (plasmid WISP0070) (HIV-1 NL4-3); experiment: Superdex 75 gel filtration, 4 mg/ml loaded, 25 mM phosphate pH 7.2, 150 mM NaCl; self-association
[2] = molecular target: (CA-CTD)2, two copies of the HIV-1 CA C-terminal dimerization domain in tandem (plasmid WISP0070) (HIV-1 NL4-3); experiment: equilibrium sedimentation (analytical ultracentrifugation), 22,000 rpm, 4 °C, 25 mM phosphate pH 7.0, 100 mM NaCl, 2 mM DTT; self-association
[3] = molecular target: CA-NC(G94D) with the CA A42D mutation (plasmid WISP01125) (HIV-1 NL4-3); experiment: self-assembly of 9 µM mutant protein with 1 µM d(TG)50, overnight at 4 °C, 500 mM NaCl, 50 mM Tris-HCl pH 8.0; light scattering at 312 nm
[4] = molecular target: CA-NC(G94D) with the CA W184A/M185A mutations (plasmid WISP01127) (HIV-1 NL4-3); experiment: as above
[5] = molecular target: HIV-1 CA-NC (wild-type) (HIV-1 NL4-3); experiment: self-assembly of 9 µM protein with 1 µM d(TG)50, overnight at 4 °C, 500 mM NaCl, 50 mM Tris-HCl pH 8.0; light scattering at 312 nm (the filing puts the higher signal down to aggregation)
[6] = molecular target: HIV-1 CA-NC(G94D) protein (HIV-1 NL4-3 Gag amino acids 133-433 with the point mutation G94D; plasmid WISP9868) (HIV-1 NL4-3); experiment: self-assembly of 9 µM CA-NC(G94D) with 1 µM d(TG)50, 16 h at 4 °C, 500 mM NaCl, 50 mM Tris-HCl; light scattering at 312 nm
[7] = molecular target: HIV-1 CA-NC(G94D) protein (HIV-1 NL4-3 Gag amino acids 133-433 with the point mutation G94D; plasmid WISP9868) (HIV-1 NL4-3); experiment: self-assembly of 9 µM protein with 1 µM d(TG)50, overnight at 4 °C, 500 mM NaCl, 50 mM Tris-HCl pH 8.0; light scattering at 312 nm
[8] = molecular target: HIV-1 CA-NC(G94D) protein (HIV-1 NL4-3 Gag amino acids 133-433 with the point mutation G94D; plasmid WISP9868) (HIV-1 NL4-3); experiment: self-assembly of 9 µM CA-NC(G94D) with 0.03 mg/ml d(TG)25, overnight at 4 °C, 500 mM NaCl, 50 mM Tris-HCl pH 8.0; light scattering at 312 nm
[9] = molecular target: HIV-1 CA-NC(G94D) protein (HIV-1 NL4-3 Gag amino acids 133-433 with the point mutation G94D; plasmid WISP9868) (HIV-1 NL4-3); experiment: self-assembly of 9 µM CA-NC(G94D) with 0.03 mg/ml d(TG)38, overnight at 4 °C, 500 mM NaCl, 50 mM Tris-HCl pH 8.0; light scattering at 312 nm
[10] = molecular target: HIV-1 CA-NC(G94D) protein (HIV-1 NL4-3 Gag amino acids 133-433 with the point mutation G94D; plasmid WISP9868) (HIV-1 NL4-3); experiment: self-assembly of 9 µM CA-NC(G94D) with 0.03 mg/ml d(TG)50, overnight at 4 °C, 500 mM NaCl, 50 mM Tris-HCl pH 8.0; light scattering at 312 nm
[11] = molecular target: HIV-1 CA-NC(G94D) protein (HIV-1 NL4-3 Gag amino acids 133-433 with the point mutation G94D; plasmid WISP9868) (HIV-1 NL4-3); experiment: self-assembly of 9 µM CA-NC(G94D) with 0.03 mg/ml random 100-base oligonucleotide d(N)100, overnight at 4 °C, 500 mM NaCl, 50 mM Tris-HCl pH 8.0; light scattering at 312 nm (only slightly above background)

(CA-CTD)2, two copies of the HIV-1 CA C-terminal dimerization domain in tandem (plasmid WISP0070)
apparent mass (gel filtration, oligomerization state) [1]: 59 kDa | Kd [2]: < 1000 nM

CA-NC(G94D) with the CA A42D mutation (plasmid WISP01125)
Abs312 (light scattering of cylinder formation) [3]: 0.025

CA-NC(G94D) with the CA W184A/M185A mutations (plasmid WISP01127)
Abs312 (light scattering of cylinder formation) [4]: 0.008

HIV-1 CA-NC (wild-type)
Abs312 (light scattering of cylinder formation) [5]: 0.735

HIV-1 CA-NC(G94D) protein (HIV-1 NL4-3 Gag amino acids 133-433 with the point mutation G94D; plasmid WISP9868)
Abs312 (light scattering of cylinder formation) [6]: 0.3 to 0.4 | Abs312 (light scattering of cylinder formation) [7]: 0.292 | Abs312 (light scattering of cylinder formation) [8]: 0.2 | Abs312 (light scattering of cylinder formation) [9]: 0.279 | Abs312 (light scattering of cylinder formation) [10]: 0.292 | Abs312 (light scattering of cylinder formation) [11]: 0.035
